PMC9352680, “A comprehensive thermodynamic model for RNA binding by the Saccharomyces cerevisiae Pumilio protein PUF4”
Changes are numbered by the printed parent chain. Names and notes keep the numbering of the source.

Target: T1, PUF4 RNA-binding domain (Saccharomyces cerevisiae, UniProt P25339 537-888)
T1 sequence: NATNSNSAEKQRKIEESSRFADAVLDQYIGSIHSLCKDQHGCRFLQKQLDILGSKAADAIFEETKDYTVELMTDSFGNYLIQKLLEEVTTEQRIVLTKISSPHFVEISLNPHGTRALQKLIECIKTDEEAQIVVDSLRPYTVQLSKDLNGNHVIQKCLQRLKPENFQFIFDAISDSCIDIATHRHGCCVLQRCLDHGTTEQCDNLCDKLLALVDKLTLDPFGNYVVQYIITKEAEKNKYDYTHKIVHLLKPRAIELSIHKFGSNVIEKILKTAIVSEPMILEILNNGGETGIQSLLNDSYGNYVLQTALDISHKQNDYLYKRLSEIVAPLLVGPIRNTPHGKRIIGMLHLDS
Assay: Mg; RNA-MaP; 20 mM Na-HEPES pH 7.4, 30 mM KOAc, 0.75 mM MgCl2, 0.1% Tween-20, 5% glycerol, 0.1 mg/mL BSA, 2 mM DTT; 25 C; 0.0125-409.6 nM protein
Details: tags: N-His6-TEV cleaved; C-SNAP kept, Cy3B-labelled; label: tethered on chip by stalled RNA polymerase

B1: Ib_S2_P4E.1_K4.1_C4.1_H4.1_[T1G]_[A4C]_A4.1_F4.1_T4.1 (ssRNA)
RNA: UUUGAUUAAUAUGAUAUCGUUCUUUCUGGUCUAUUAUUCUUUCUCGAUAUCAUAUUAAUCUUU
Kd: 1520 nM

B2: Ib_S2_P4E.1_K4.1_C4.1_H4.1_[A4G]_A4.1_[A6C]_F4.1_T4.1 (ssRNA)
RNA: B1 RNA with G28U, C31G, A33C
Kd: 8.2 nM

B3: Ib_S2_P4E.1_K4.1_C4.1_H4.1_[A4C]_A4.1_[T7C]_F4.1_T4.1 (ssRNA)
RNA: B1 RNA with G28U, U34C
Kd: 6.04 nM

B4: Ib_S2_P4E.1_K4.1_C4.1_H4.1_[T1A]_A4.1_[T5A]_F4.1_T4.1 (ssRNA)
RNA: B1 RNA with G28A, C31A, U32A
Kd: 657 nM

B5: Ib_S2_P4E.1_K4.1_C4.1_H4.1_[G2T]_[A4C]_A4.1_F4.1_T4.1 (ssRNA)
RNA: B1 RNA with G28U, G29U
Kd: > 2300 nM

B6: Ib_S2_P4E.1_K4.1_C4.1_H4.1_[G2T]_[A4T]_A4.1_F4.1_T4.1 (ssRNA)
RNA: B1 RNA with G28U, G29U, C31U
Kd: > 2300 nM

B7: Ia_S2_P4E.1_K4.1_C4.1_H4.1_[A4T]_A4.1_F4.1_T4.1 (ssRNA)
RNA: B1 RNA with G28U, C31U
Kd: 4.39 nM

B8: Ia_S2_P4E.1_K4.1_C4.1_H4.1_[A4C]_A4.1_F4.1_T4.1 (ssRNA)
RNA: B1 RNA with G28U
Kd: 4.11 nM

B9: Ia_S2_P4E.1_K4.1_C4.1_H4.1_[G2T]_A4.1_F4.1_T4.1 (ssRNA)
RNA: B1 RNA with G28U, G29U, C31A
Kd: 137 nM

B10: Ib_S2_P4E.1_K4.1_C4.1_H4.1_[G2C]_A4.1_[T7C]_F4.1_T4.1 (ssRNA)
RNA: B1 RNA with G28U, G29C, C31A, U34C
Kd: 190 nM

B11: Ib_S2_P4E.1_K4.1_C4.1_H4.1_[G2C]_[T3A]_A4.1_F4.1_T4.1 (ssRNA)
RNA: B1 RNA with G28U, G29C, U30A, C31A
Kd: > 2300 nM

B12: Ib_S2_P4E.1_K4.1_C4.1_H4.1_[T3C]_A4.1_[A6G]_F4.1_T4.1 (ssRNA)
RNA: B1 RNA with G28U, U30C, C31A, A33G
Kd: 777 nM

B13: Ib_S2_P4E.1_K4.1_C4.1_H4.1_[T1C]_[A4G]_A4.1_F4.1_T4.1 (ssRNA)
RNA: B1 RNA with G28C, C31G
Kd: 7.32 nM

B14: Ib_S2_P4E.1_K4.1_C4.1_H4.1_[T3C]_[A4C]_A4.1_F4.1_T4.1 (ssRNA)
RNA: B1 RNA with G28U, U30C
Kd: 1130 nM

B15: Ib_S2_P4E.1_K4.1_C4.1_H4.1_[A4G]_A4.1_[T7G]_F4.1_T4.1 (ssRNA)
RNA: B1 RNA with G28U, C31G, U34G
Kd: 5.12 nM

B16: Ia_S2_P4E.1_K4.1_C4.1_H4.1_[G2C]_A4.1_F4.1_T4.1 (ssRNA)
RNA: B1 RNA with G28U, G29C, C31A
Kd: 151 nM

B17: Ic_S2_P4E.1_K4.1_C4.1_H4.1_A4.1_[T5A]_F4.1_T4.1 (ssRNA)
RNA: B1 RNA with G28U, C31A, U32A
Kd: 0.874 nM

B18: Ib_S2_P4E.1_K4.1_C4.1_H4.1_[G2T]_A4.1_[T5A]_F4.1_T4.1 (ssRNA)
RNA: B1 RNA with G28U, G29U, C31A, U32A
Kd: 1900 nM

B19: Ib_S2_P4E.1_K4.1_C4.1_H4.1_A4.1_[T5C]_[A6T]_F4.1_T4.1 (ssRNA)
RNA: B1 RNA with G28U, C31A, U32C, A33U
Kd: 0.795 nM

B20: Ib_S2_P4E.1_K4.1_C4.1_H4.1_[T1C]_A4.1_[A6T]_F4.1_T4.1 (ssRNA)
RNA: B1 RNA with G28C, C31A, A33U
Kd: 126 nM

B21: Ib_S2_P4E.1_K4.1_C4.1_H4.1_[A4T]_A4.1_[T7G]_F4.1_T4.1 (ssRNA)
RNA: B1 RNA with G28U, C31U, U34G
Kd: 30.8 nM

B22: Ib_S2_P4E.1_K4.1_C4.1_H4.1_[G2T]_A4.1_[A6C]_F4.1_T4.1 (ssRNA)
RNA: B1 RNA with G28U, G29U, C31A, A33C
Kd: > 2300 nM

B23: Ib_S2_P4E.1_K4.1_C4.1_H4.1_[T1C]_A4.1_[A6G]_F4.1_T4.1 (ssRNA)
RNA: B1 RNA with G28C, C31A, A33G
Kd: 795 nM

B24: Ib_S2_P4E.1_K4.1_C4.1_H4.1_[G2T]_[T3A]_A4.1_F4.1_T4.1 (ssRNA)
RNA: B1 RNA with G28U, G29U, U30A, C31A
Kd: 2120 nM

B25: Ib_S2_P4E.1_K4.1_C4.1_H4.1_[T1G]_A4.1_[T5C]_F4.1_T4.1 (ssRNA)
RNA: B1 RNA with C31A, U32C
Kd: 21.1 nM

B26: Ib_S2_P4E.1_K4.1_C4.1_H4.1_[A4C]_A4.1_[T7A]_F4.1_T4.1 (ssRNA)
RNA: B1 RNA with G28U, U34A
Kd: 16 nM

B27: Ib_S2_P4E.1_K4.1_C4.1_H4.1_A4.1_[T5C]_[T7G]_F4.1_T4.1 (ssRNA)
RNA: B1 RNA with G28U, C31A, U32C, U34G
Kd: 0.884 nM

B28: Ib_S2_P4E.1_K4.1_C4.1_H4.1_[G2A]_A4.1_[A6C]_F4.1_T4.1 (ssRNA)
RNA: B1 RNA with G28U, G29A, C31A, A33C
Kd: 154 nM

B29: Ib_S2_P4E.1_K4.1_C4.1_H4.1_[A4T]_A4.1_[A6C]_F4.1_T4.1 (ssRNA)
RNA: B1 RNA with G28U, C31U, A33C
Kd: 23.1 nM

B30: Ib_S2_P4E.1_K4.1_C4.1_H4.1_[T3C]_A4.1_[A6C]_F4.1_T4.1 (ssRNA)
RNA: B1 RNA with G28U, U30C, C31A, A33C
Kd: 1010 nM

B31: Ib_S2_P4E.1_K4.1_C4.1_H4.1_[A4G]_A4.1_[A6T]_F4.1_T4.1 (ssRNA)
RNA: B1 RNA with G28U, C31G, A33U
Kd: 4.38 nM

B32: Ib_S2_P4E.1_K4.1_C4.1_H4.1_[G2A]_A4.1_[T7G]_F4.1_T4.1 (ssRNA)
RNA: B1 RNA with G28U, G29A, C31A, U34G
Kd: 80.2 nM

B33: Ib_S2_P4E.1_K4.1_C4.1_H4.1_[A4C]_A4.1_[A6T]_F4.1_T4.1 (ssRNA)
RNA: B1 RNA with G28U, A33U
Kd: 28.6 nM

B34: Ib_S2_P4E.1_K4.1_C4.1_H4.1_[T3C]_[A4T]_A4.1_F4.1_T4.1 (ssRNA)
RNA: B1 RNA with G28U, U30C, C31U
Kd: 667 nM

B35: Ic_S2_P4E.1_K4.1_C4.1_H4.1_A4.1_[T5A]_[A6T]_F4.1_T4.1 (ssRNA)
RNA: B1 RNA with G28U, C31A, U32A, A33U
Kd: 2.07 nM

B36: Ib_S2_P4E.1_K4.1_C4.1_H4.1_[T3C]_A4.1_[T7G]_F4.1_T4.1 (ssRNA)
RNA: B1 RNA with G28U, U30C, C31A, U34G
Kd: 616 nM

B37: Ib_S2_P4E.1_K4.1_C4.1_H4.1_[T1G]_A4.1_[A6T]_F4.1_T4.1 (ssRNA)
RNA: B1 RNA with C31A, A33U
Kd: 497 nM

B38: Ib_S2_P4E.1_K4.1_C4.1_H4.1_[G2A]_[T3A]_A4.1_F4.1_T4.1 (ssRNA)
RNA: B1 RNA with G28U, G29A, U30A, C31A
Kd: > 2300 nM

B39: Ib_S2_P4E.1_K4.1_C4.1_H4.1_A4.1_[T5C]_[A6C]_F4.1_T4.1 (ssRNA)
RNA: B1 RNA with G28U, C31A, U32C, A33C
Kd: 0.902 nM

B40: Ib_S2_P4E.1_K4.1_C4.1_H4.1_A4.1_[T5G]_[A6T]_F4.1_T4.1 (ssRNA)
RNA: B1 RNA with G28U, C31A, U32G, A33U
Kd: 2.75 nM

B41: Ib_S2_P4E.1_K4.1_C4.1_H4.1_[G2C]_A4.1_[A6G]_F4.1_T4.1 (ssRNA)
RNA: B1 RNA with G28U, G29C, C31A, A33G
Kd: 1150 nM

B42: Ib_S2_P4E.1_K4.1_C4.1_H4.1_[T1A]_A4.1_[A6T]_F4.1_T4.1 (ssRNA)
RNA: B1 RNA with G28A, C31A, A33U
Kd: 739 nM

B43: Ib_S2_P4E.1_K4.1_C4.1_H4.1_[A4G]_A4.1_[T7C]_F4.1_T4.1 (ssRNA)
RNA: B1 RNA with G28U, C31G, U34C
Kd: 1.04 nM

B44: Ib_S2_P4E.1_K4.1_C4.1_H4.1_[G2A]_[A4C]_A4.1_F4.1_T4.1 (ssRNA)
RNA: B1 RNA with G28U, G29A
Kd: 1120 nM

B45: Ib_S2_P4E.1_K4.1_C4.1_H4.1_[A4T]_A4.1_[A6G]_F4.1_T4.1 (ssRNA)
RNA: B1 RNA with G28U, C31U, A33G
Kd: 55.4 nM

B46: Ib_S2_P4E.1_K4.1_C4.1_H4.1_[T1C]_A4.1_[T7G]_F4.1_T4.1 (ssRNA)
RNA: B1 RNA with G28C, C31A, U34G
Kd: 132 nM

B47: Ib_S2_P4E.1_K4.1_C4.1_H4.1_[G2T]_A4.1_[A6G]_F4.1_T4.1 (ssRNA)
RNA: B1 RNA with G28U, G29U, C31A, A33G
Kd: > 2300 nM

B48: Ib_S2_P4E.1_K4.1_C4.1_H4.1_[A4T]_A4.1_[T7C]_F4.1_T4.1 (ssRNA)
RNA: B1 RNA with G28U, C31U, U34C
Kd: 6.89 nM

B49: Ib_S2_P4E.1_K4.1_C4.1_H4.1_[G2T]_A4.1_[A6T]_F4.1_T4.1 (ssRNA)
RNA: B1 RNA with G28U, G29U, C31A, A33U
Kd: 1390 nM

B50: Ib_S2_P4E.1_K4.1_C4.1_H4.1_A4.1_[T5A]_[A6C]_F4.1_T4.1 (ssRNA)
RNA: B1 RNA with G28U, C31A, U32A, A33C
Kd: 2.62 nM

B51: Ib_S2_P4E.1_K4.1_C4.1_H4.1_[G2A]_[T3C]_A4.1_F4.1_T4.1 (ssRNA)
RNA: B1 RNA with G28U, G29A, U30C, C31A
Kd: 1430 nM

B52: Ib_S2_P4E.1_K4.1_C4.1_H4.1_[T3C]_A4.1_[T5C]_F4.1_T4.1 (ssRNA)
RNA: B1 RNA with G28U, U30C, C31A, U32C
Kd: 14.6 nM

B53: Ib_S2_P4E.1_K4.1_C4.1_H4.1_[T1G]_A4.1_[T7A]_F4.1_T4.1 (ssRNA)
RNA: B1 RNA with C31A, U34A
Kd: 303 nM

B54: Ib_S2_P4E.1_K4.1_C4.1_H4.1_[G2A]_[A4T]_A4.1_F4.1_T4.1 (ssRNA)
RNA: B1 RNA with G28U, G29A, C31U
Kd: 852 nM

B55: Ib_S2_P4E.1_K4.1_C4.1_H4.1_[A4C]_A4.1_[T7G]_F4.1_T4.1 (ssRNA)
RNA: B1 RNA with G28U, U34G
Kd: 50.2 nM

B56: Ib_S2_P4E.1_K4.1_C4.1_H4.1_[A4G]_A4.1_[T7A]_F4.1_T4.1 (ssRNA)
RNA: B1 RNA with G28U, C31G, U34A
Kd: 5.79 nM

B57: Ib_S2_P4E.1_K4.1_C4.1_H4.1_[T1A]_A4.1_[T7G]_F4.1_T4.1 (ssRNA)
RNA: B1 RNA with G28A, C31A, U34G
Kd: 550 nM

B58: Ib_S2_P4E.1_K4.1_C4.1_H4.1_[G2A]_[A4G]_A4.1_F4.1_T4.1 (ssRNA)
RNA: B1 RNA with G28U, G29A, C31G
Kd: 13.3 nM

UCUCUUAGUAUAUAUCUCUU (ssRNA) [Ia_S1_P3E.1_K3.1_C3.1_H3.1_[T1A]_A3.1_F3.1_T3.1]
Kd: 742 nM
